In article PMC9352680, “A comprehensive thermodynamic model for RNA binding by the Saccharomyces cerevisiae Pumilio protein PUF4”:
Numbering of substitutions follows the chain as printed. Names may count otherwise.

T1: PUF4 RNA-binding domain (Saccharomyces cerevisiae, UniProt P25339 537-888)
T1 sequence: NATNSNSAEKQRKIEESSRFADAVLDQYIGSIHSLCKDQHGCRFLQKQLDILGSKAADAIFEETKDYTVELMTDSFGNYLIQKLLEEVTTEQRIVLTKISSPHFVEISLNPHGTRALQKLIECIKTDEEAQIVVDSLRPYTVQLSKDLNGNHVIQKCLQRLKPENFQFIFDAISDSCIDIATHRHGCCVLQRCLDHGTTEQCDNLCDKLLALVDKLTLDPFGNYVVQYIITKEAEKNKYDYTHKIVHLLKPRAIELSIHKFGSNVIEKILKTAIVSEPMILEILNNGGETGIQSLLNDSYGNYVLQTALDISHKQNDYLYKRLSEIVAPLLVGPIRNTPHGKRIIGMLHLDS

B1: Id_ii_S4_P5E.4_K5.3_C5.2_[C-2G]_H5.3_A5.1_F5.1_T5.2_[A12C] (ssRNA)
RNA: UUUGACAACUGAUCGUUCUUUCUGUACACUUAUUAUCUUCUUUCUCGAUCAGUUGUCUUU
B2: Id_ii_S4_P5E.4_K5.3_C5.2_[C-2T]_[T-1C]_H5.3_A5.1_F5.1_T5.2_[A12T] (ssRNA)
RNA: B1 RNA with G24U, U25C, C37U
B3: Id_ii_S4_P5E.4_K5.3_C5.2_[C-2T]_H5.3_A5.1_F5.1_T5.2_[A12T] (ssRNA)
RNA: B1 RNA with G24U, C37U
B4: Id_ii_S4_P5E.4_K5.3_C5.2_[C-2A]_[T-1C]_H5.3_A5.1_F5.1_T5.2_[A12G] (ssRNA)
RNA: B1 RNA with G24A, U25C, C37G
B5: Id_ii_S4_P5E.4_K5.3_C5.2_[C-2G]_H5.3_A5.1_F5.1_T5.2_[A12T] (ssRNA)
RNA: B1 RNA with C37U
B6: Id_ii_S4_P5E.2_K5.1_C5.2_[T-1A]_H5.1_A5.1_F5.1_T5.2_[T11A] (ssRNA)
RNA: UUUGACAACUGAUCGUUCUUUCUCAUGUAUUAUUAAAUUCUUUCUCGAUCAGUUGUCUUU
B7: Id_ii_S4_P5E.3_K5.2_C5.2_[C-2A]_[T-1C]_H5.2_A5.1_F5.1_T5.2_[T11C]_[A12T] (ssRNA)
RNA: B6 RNA with C24A, A25C, G27A, A36C, A37U
B8: Id_ii_S4_P5E.3_K5.2_C5.2_[C-2T]_[T-1G]_H5.2_A5.1_F5.1_T5.2_[A12T] (ssRNA)
RNA: B6 RNA with C24U, A25G, G27A, A36U, A37U
B9: Id_ii_S4_P5E.3_K5.2_C5.2_[C-2A]_H5.2_A5.1_F5.1_T5.2_[T11C] (ssRNA)
RNA: B6 RNA with C24A, A25U, G27A, A36C
B10: Id_ii_S4_P5E.4_K5.3_C5.2_[C-2A]_[T-1A]_H5.3_A5.1_F5.1_T5.2 (ssRNA)
RNA: B1 RNA with G24A, U25A, C37A
B11: Id_ii_S4_P5E.3_K5.2_C5.2_[T-1A]_H5.2_A5.1_F5.1_T5.2_[T11A]_[A12C] (ssRNA)
RNA: B6 RNA with G27A, A37C
B12: Id_ii_S4_P5E.3_K5.2_C5.2_[C-2T]_[T-1G]_H5.2_A5.1_F5.1_T5.2_[T11A]_[A12C] (ssRNA)
RNA: B6 RNA with C24U, A25G, G27A, A37C
B13: Id_ii_S4_P5E.3_K5.2_C5.2_[T-1C]_H5.2_A5.1_F5.1_T5.2_[T11C]_[A12T] (ssRNA)
RNA: B6 RNA with A25C, G27A, A36C, A37U
B14: Id_ii_S4_P5E.3_K5.2_C5.2_[T-1A]_H5.2_A5.1_F5.1_T5.2_[T11C]_[A12C] (ssRNA)
RNA: B6 RNA with G27A, A36C, A37C
B15: Id_ii_S4_P5E.2_K5.1_C5.2_[T-1A]_H5.1_A5.1_F5.1_T5.2_[A12T] (ssRNA)
RNA: B6 RNA with A36U, A37U
B16: Id_ii_S4_P5E.3_K5.2_C5.2_[T-1A]_H5.2_A5.1_F5.1_T5.2_[T11A]_[A12G] (ssRNA)
RNA: B6 RNA with G27A, A37G
B17: Id_ii_S4_P5E.3_K5.2_C5.2_[C-2T]_[T-1C]_H5.2_A5.1_F5.1_T5.2_[T11C]_[A12G] (ssRNA)
RNA: B6 RNA with C24U, A25C, G27A, A36C, A37G
B18: Id_ii_S4_P5E.3_K5.2_C5.2_[C-2T]_[T-1G]_H5.2_A5.1_F5.1_T5.2_[T11G]_[A12C] (ssRNA)
RNA: B6 RNA with C24U, A25G, G27A, A36G, A37C
B19: Id_ii_S4_P5E.3_K5.2_C5.2_[C-2T]_[T-1G]_H5.2_A5.1_F5.1_T5.2_[T11G]_[A12T] (ssRNA)
RNA: B6 RNA with C24U, A25G, G27A, A36G, A37U
B20: Id_ii_S4_P5E.2_K5.1_C5.2_H5.1_A5.1_F5.1_T5.2_[T11A]_[A12C] (ssRNA)
RNA: B6 RNA with A25U, A37C
B21: Id_ii_S4_P5E.4_K5.3_C5.2_[C-2G]_H5.3_A5.1_F5.1_T5.2_[T11A]_[A12T] (ssRNA)
RNA: B1 RNA with U36A, C37U
B22: Id_ii_S4_P5E.3_K5.2_C5.2_[C-2T]_H5.2_A5.1_F5.1_T5.2_[T11G]_[A12T] (ssRNA)
RNA: B6 RNA with C24U, A25U, G27A, A36G, A37U
B23: Id_ii_S4_P5E.3_K5.2_C5.2_[C-2G]_H5.2_A5.1_F5.1_T5.2_[A12T] (ssRNA)
RNA: B6 RNA with C24G, A25U, G27A, A36U, A37U
B24: Id_ii_S4_P5E.4_K5.3_C5.2_[C-2T]_H5.3_A5.1_F5.1_T5.2_[T11A]_[A12T] (ssRNA)
RNA: B1 RNA with G24U, U36A, C37U
B25: Id_ii_S4_P5E.4_K5.3_C5.2_[C-2T]_[T-1A]_H5.3_A5.1_F5.1_T5.2 (ssRNA)
RNA: B1 RNA with G24U, U25A, C37A
B26: Id_ii_S4_P5E.4_K5.3_C5.2_[C-2T]_[T-1A]_H5.3_A5.1_F5.1_T5.2_[A12C] (ssRNA)
RNA: B1 RNA with G24U, U25A
B27: Id_ii_S4_P5E.3_K5.2_C5.2_H5.2_A5.1_F5.1_T5.2_[T11C]_[A12G] (ssRNA)
RNA: B6 RNA with A25U, G27A, A36C, A37G
B28: Id_ii_S4_P5E.3_K5.2_C5.2_H5.2_A5.1_F5.1_T5.2_[A12T] (ssRNA)
RNA: B6 RNA with A25U, G27A, A36U, A37U
B29: Id_ii_S4_P5E.3_K5.2_C5.2_[C-2G]_H5.2_A5.1_F5.1_T5.2_[T11G]_[A12T] (ssRNA)
RNA: B6 RNA with C24G, A25U, G27A, A36G, A37U
B30: Id_ii_S4_P5E.3_K5.2_C5.2_[C-2A]_[T-1C]_H5.2_A5.1_F5.1_T5.2_[A12C] (ssRNA)
RNA: B6 RNA with C24A, A25C, G27A, A36U, A37C
B31: Id_ii_S4_P5E.3_K5.2_C5.2_[T-1G]_H5.2_A5.1_F5.1_T5.2_[A12T] (ssRNA)
RNA: B6 RNA with A25G, G27A, A36U, A37U
B32: Id_ii_S4_P5E.3_K5.2_C5.2_[C-2A]_[T-1A]_H5.2_A5.1_F5.1_T5.2_[T11C]_[A12C] (ssRNA)
RNA: B6 RNA with C24A, G27A, A36C, A37C
B33: Id_ii_S4_P5E.4_K5.3_C5.2_[C-2G]_[T-1C]_H5.3_A5.1_F5.1_T5.2_[T11A]_[A12T] (ssRNA)
RNA: B1 RNA with U25C, U36A, C37U
B34: Id_ii_S4_P5E.3_K5.2_C5.2_[C-2A]_[T-1C]_H5.2_A5.1_F5.1_T5.2_[T11C]_[A12G] (ssRNA)
RNA: B6 RNA with C24A, A25C, G27A, A36C, A37G
B35: Id_ii_S4_P5E.3_K5.2_C5.2_[C-2T]_[T-1A]_H5.2_A5.1_F5.1_T5.2_[A12T] (ssRNA)
RNA: B6 RNA with C24U, G27A, A36U, A37U
B36: Id_ii_S4_P5E.3_K5.2_C5.2_[C-2G]_H5.2_A5.1_F5.1_T5.2_[T11C]_[A12G] (ssRNA)
RNA: B6 RNA with C24G, A25U, G27A, A36C, A37G
B37: Id_ii_S4_P5E.2_K5.1_C5.2_H5.1_A5.1_F5.1_T5.2_[A12C] (ssRNA)
RNA: B6 RNA with A25U, A36U, A37C
B38: Id_ii_S4_P5E.3_K5.2_C5.2_H5.2_A5.1_F5.1_T5.2_[T11C]_[A12T] (ssRNA)
RNA: B6 RNA with A25U, G27A, A36C, A37U
B39: Id_ii_S4_P5E.3_K5.2_C5.2_[C-2T]_H5.2_A5.1_F5.1_T5.2_[T11G]_[A12C] (ssRNA)
RNA: B6 RNA with C24U, A25U, G27A, A36G, A37C
B40: Id_ii_S4_P5E.3_K5.2_C5.2_[T-1A]_H5.2_A5.1_F5.1_T5.2_[T11A]_[A12T] (ssRNA)
RNA: B6 RNA with G27A, A37U

target: T1, PUF4 RNA-binding domain; test: Mg; RNA-MaP; 20 mM Na-HEPES pH 7.4, 30 mM KOAc, 0.75 mM MgCl2, 0.1% Tween-20, 5% glycerol, 0.1 mg/mL BSA, 2 mM DTT; 25 C; 0.0125-409.6 nM protein; conditions: tags: N-His6-TEV cleaved; C-SNAP kept, Cy3B-labelled; label: tethered on chip by stalled RNA polymerase

| Binder | Kd [nM] |
| --- | --- |
| UCUCUUUGCAUUGUUAUCUCUU (ssRNA) [Ib_S1_P5E.1_K5.1_C5.1_H5.1_[T3C]_A5.1_[A7G]_F5.1_T5.1] | 2260 |
| UCUCUUUGUUGUAUUAUCUCUU (ssRNA) [Ib_S1_P5E.1_K5.1_C5.1_H5.1_[A4T]_A5.1_[T5G]_F5.1_T5.1] | 22.2 |
| UCUCUUUGCAUUUUUAUCUCUU (ssRNA) [Ib_S1_P5E.1_K5.1_C5.1_H5.1_[T3C]_A5.1_[A7T]_F5.1_T5.1] | 1540 |
| B1 | 3 |
| B2 | > 2300 |
| B3 | > 2300 |
| B4 | > 2300 |
| B5 | 2.65 |
| UCUCUUUGUAUUGUUAUCUCUU (ssRNA) [Ia_S1_P5E.1_K5.1_C5.1_H5.1_A5.1_[A7G]_F5.1_T5.1] | 11.2 |
| UCUCUUUGUGCUAUUAUCUCUU (ssRNA) [Ib_S1_P5E.1_K5.1_C5.1_H5.1_[A4G]_A5.1_[T5C]_F5.1_T5.1] | 28 |
| UCUCUUUGUCCUAUUAUCUCUU (ssRNA) [Ib_S1_P5E.1_K5.1_C5.1_H5.1_[A4C]_A5.1_[T5C]_F5.1_T5.1] | 79.5 |
| B6 | 8.86 |
| B7 | 122 |
| B8 | 0.445 |
| B9 | 203 |
| B10 | 845 |
| B11 | 143 |
| B12 | 0.672 |
| B13 | 65.6 |
| B14 | 116 |
| B15 | 2.17 |
| B16 | > 2300 |
| B17 | 538 |

| Binder | Kd [nM] |
| --- | --- |
| B18 | 1.12 |
| B19 | 1 |
| B20 | 3 |
| B21 | 2.81 |
| B22 | 500 |
| B23 | 28.2 |
| B24 | > 2300 |
| B25 | 893 |
| B26 | > 2300 |
| B27 | 470 |
| B28 | 168 |
| B29 | 51.7 |
| B30 | 216 |
| B31 | 15.6 |
| B32 | 896 |
| B33 | 559 |
| B34 | 1150 |
| B35 | 23.8 |
| B36 | 176 |
| B37 | 1.53 |
| B38 | 96.6 |
| B39 | 416 |
| B40 | 214 |
